Assay results as given in paper PMC4386031.

Target: ubiquitin (monoUb), P0CG48
Experiment: NMR titration; NZF domain added to 15N-labeled monoUb or diUb; BEST-TROSY, chemical shift perturbation; NMR PBS (18 mM Na2HPO4, 7 mM NaH2PO4 pH 7.2, 150 mM NaCl), 298 K

Kd [µM]	Binder
540	RTQHWTCSVCTYENWAKAKRCVVCDHPRPN (domain or fragment, modifications not checked) [TRABID NZF3]
1000	NANKWSCHMCTYLNWPRAIRCTQCLSQRRT (domain or fragment, modifications not checked) [TRABID NZF2]
